Laboratory results published in paper doi:10.1101/2021.04.12.439584 (bioRxiv, 2021).

Target: Rabbit skeletal muscle actin (rabbit, UniProt P68135 1-377)
Test: co-sedimentation

B1: LmForminA FH2 domain (695aa-1092aa) (domain or fragment)
chain: ASGAAAPMLNSSTTRNVPINGAVGDSDDAIFKAARPIELTAGARDKLLALFPKAAPKHVIEEDEATSRVQRILDVNRDRNVGIVLKFIRLPIQQIEASVRTFDTLTLGEERISGLLKIIPTSDDFEAIARAQKEHGGPWKRAEEQQLPQAVRFFLMTQRIDHYAERIHAWSLRYELHGRLEYLEQKLSKADKAIDATFASPSLPDLLYFLLEVSNFLNAGSRFQGAKGFPITQLPQIMDFKTTDGKGTLLQYVAEILDTVNPHLQAISSELMPAVDEGRDIDVASIEQELKKLRGRLQKCKHLIEQLKNDVRWTNVLGKFIYRSLPELERVEKLAESINGKAERLQEFLCEKKETFSLNEVLRVLSNFCKRYEQEREKQRLRQERQDRMEDNKQRRQS
  Kd: 1840 nM

B2: LmForminB FH2 domain (714aa-1149aa) (domain or fragment)
chain: KPKPQYTGPRLKTFFWKKILKPSGIWAASDTDDVRRAVIDESFMLKLFKLKAVAQPSAAEGAAEKSEQERRSQLRSNVFTGQRLQNMGIALKRVQVPVEVLCKALITCDSAVLPPERREMLTAALPTTEDVTALTAEKQAGRSVWTEVETYLYTAATTVKDVRERLQLWTAAEELEDTVQSISSLLSSVDAAVCAITHRNGRFARMMRIILAFGNHLNRGTPHADAEGFRLESLNQLNFVKSSDGKTTVLMALVVSLMDSGRGRSERGGGTTSAPGADNDDDDVRNALRFVEDVSCVRAVANSPLQDMGQQVSQLNFTLQRMRRVVEEAKDTKAWYDKRLPSVKAEEVPDALPGLLREAVDRYLATVGQIALRYQQLRDDVSAMMATYGEDPNADETVIWGYVLQFSKDVQRCVDTVAAVHLTKRRLMGMPEATEQ
  Kd: 200 nM
